{"source": "paper PMC5389570", "about": "(Nucleic Acids Research, 2017)", "binders": {"B1": {"name": "human Cdc45 (cell division cycle protein 45), recombinant, C-terminal His6 tag (natural protein)", "chain": "MFVSDFRKEFYEVVQSQRVLLFVASDVDALCACKILQALFQCDHVQYTLVPVSGWQELETAFLEHKEQFHYFILINCGANVDLLDILQPDEDTIFFVCDTHRPVNVVNVYNDTQIKLLIKQDDDLEVPAYEDIFRDEEEDEEHSGNDSDGSEPSEKRTRLEEEIVEQTMRRRQRREWEARRRDILFDYEQYEYHGTSSAMVMFELAWMLSKDLNDMLWWAIVGLTDQWVQDKITQMKYVTDVGVLQRHVSRHNHRNEDEENTLSVDCTRISFEYDLRLVLYQHWSLHDSLCNTSYTAARFKLWSVHGQKRLQEFLADMGLPLKQVKQKFQAMDISLKENLREMIEESANKFGMKDMRVQTFSIHFGFKHKFLASDVVFATMSLMESPEKDGSGTDHFIQALDSLSRSNLDKLYHGLELAKKQLRATQQTIASCLCTNLVISQGPFLYCSLMEGTPDVMLFSRPASLSLLSKHLLKSFVCSTKNRRCKLLPLVMAAPLSMEHGTVTVVGIPPETDSSDRKNFFGRAFEKAAESTSSRMLHNHFDLSVIELKAEDRSKFLDALISLLS"}}, "target": "heterotrimeric human RPA (RPA70, RPA32, RPA14) (human, UniProt P27694;P15927;P35244)", "sequence (P27694 whole entry, chain 1 of 3)": "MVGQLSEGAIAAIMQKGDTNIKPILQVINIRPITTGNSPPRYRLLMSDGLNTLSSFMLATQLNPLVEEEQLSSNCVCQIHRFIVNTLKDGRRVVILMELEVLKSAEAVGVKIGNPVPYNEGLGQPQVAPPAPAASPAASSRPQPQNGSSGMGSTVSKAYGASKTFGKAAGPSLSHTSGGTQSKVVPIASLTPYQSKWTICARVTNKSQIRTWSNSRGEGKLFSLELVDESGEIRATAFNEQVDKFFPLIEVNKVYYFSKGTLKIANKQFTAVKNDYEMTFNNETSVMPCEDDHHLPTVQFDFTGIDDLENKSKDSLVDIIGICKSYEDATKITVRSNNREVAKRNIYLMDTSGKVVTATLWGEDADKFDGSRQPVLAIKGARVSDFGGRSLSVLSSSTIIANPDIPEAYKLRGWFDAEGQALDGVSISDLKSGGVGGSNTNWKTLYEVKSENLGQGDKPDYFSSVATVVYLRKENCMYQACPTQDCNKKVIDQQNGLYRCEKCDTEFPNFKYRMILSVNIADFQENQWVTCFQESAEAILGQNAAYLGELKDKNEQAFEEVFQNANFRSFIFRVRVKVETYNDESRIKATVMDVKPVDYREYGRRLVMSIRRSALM", "sequence (P15927 whole entry, chain 2 of 3)": "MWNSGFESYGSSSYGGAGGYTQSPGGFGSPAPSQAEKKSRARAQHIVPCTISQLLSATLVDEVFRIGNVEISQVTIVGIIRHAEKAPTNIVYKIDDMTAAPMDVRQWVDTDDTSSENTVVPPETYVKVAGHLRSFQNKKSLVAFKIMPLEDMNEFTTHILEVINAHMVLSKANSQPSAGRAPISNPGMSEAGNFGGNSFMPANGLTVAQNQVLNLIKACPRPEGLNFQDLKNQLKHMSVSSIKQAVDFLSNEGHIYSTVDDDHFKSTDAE", "sequence (P35244 whole entry, chain 3 of 3)": "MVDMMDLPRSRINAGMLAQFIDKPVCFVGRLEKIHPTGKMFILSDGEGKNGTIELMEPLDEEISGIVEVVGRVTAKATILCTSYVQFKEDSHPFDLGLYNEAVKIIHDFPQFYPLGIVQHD", "test": "SPR"}
{"binder": "B1", "values": [{"measurement": "Kd", "result": 115, "unit": "nM"}]}
